According to article PMC8426278:

Target: GST-G1NC_(long) (GST-fused complete cytosolic domain of rat GIRK1, a.a. 1-84, 184-501) (rat) (UniProt P63251)
Assay: pull-down

binding as % of wt Gβγ: 89.6%
Substance: Gβ1(I80N)γ2 (bovine Gβ1 I80N co-translated with bovine Gγ2) (from UniProt P62871 1-340; P63212 1-71) (complex)
